The values below come from patent US9957297B2, “Template-fixed peptidomimetics as inhibitors of FPR1” (POLYPHOR AG, priority 2011, dated 2018).

The target of the assay is T1, Formyl-Peptide Receptor 1 (UniProt P21462 1-350, limits assumed).
T1 sequence (looked up): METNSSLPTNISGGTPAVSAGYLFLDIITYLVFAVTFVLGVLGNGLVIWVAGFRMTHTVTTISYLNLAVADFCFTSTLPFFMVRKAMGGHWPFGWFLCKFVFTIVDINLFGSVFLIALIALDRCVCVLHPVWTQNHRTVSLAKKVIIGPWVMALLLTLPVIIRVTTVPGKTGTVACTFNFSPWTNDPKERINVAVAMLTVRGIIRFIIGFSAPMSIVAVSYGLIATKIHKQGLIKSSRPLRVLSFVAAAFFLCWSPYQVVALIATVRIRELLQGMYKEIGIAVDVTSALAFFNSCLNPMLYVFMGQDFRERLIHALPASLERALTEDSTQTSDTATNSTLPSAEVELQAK
The assay is described as follows: cell-based or functional assay.

Bridges are numbered along the chain shown (N, C = ends). [ ]: non-standard residue; d: D form.

B1: cyclo(-Thr-His-Ala-Cys-Trp-Gly-^DPro-Trp-Thr-Ile-Cys-Tyr-Gln-Lys-^DPro-Pro-) (peptide)
peptide: cyclo(THACWG[dP]WTICYQK[dP]P)
modifications: disulfide 4-11
SMILES: CC[C@H](C)[C@@H]1NC(=O)[C@H]([C@@H](C)O)NC(=O)[C@H](Cc2c[nH]c3ccccc23)NC(=O)[C@H]2CCCN2C(=O)CNC(=O)[C@H](Cc2c[nH]c3ccccc23)NC(=O)[C@@H]2CSSC[C@H](NC1=O)C(=O)N[C@@H](Cc1ccc(O)cc1)C(=O)N[C@@H](CCC(N)=O)C(=O)N[C@@H](CCCCN)C(=O)N1CCC[C@@H]1C(=O)N1CCC[C@H]1C(=O)N[C@@H]([C@@H](C)O)C(=O)N[C@@H](Cc1c[nH]cn1)C(=O)N[C@@H](C)C(=O)N2
On to B1, for which the “β-Arrestin IC50” value came to 0.294 µM.

B2: cyclo(-Tyr-His-Ala-Cys-His-Gly-^DPro-Trp-Thr-Ile-Cys-Tyr-Gln-Glu-^DPro-Pro-) (peptide)
peptide: cyclo(YHACHG[dP]WTICYQE[dP]P)
modifications: disulfide 4-11
SMILES: CC[C@H](C)[C@@H]1NC(=O)[C@H]([C@@H](C)O)NC(=O)[C@H](Cc2c[nH]c3ccccc23)NC(=O)[C@H]2CCCN2C(=O)CNC(=O)[C@H](Cc2c[nH]cn2)NC(=O)[C@@H]2CSSC[C@H](NC1=O)C(=O)N[C@@H](Cc1ccc(O)cc1)C(=O)N[C@@H](CCC(N)=O)C(=O)N[C@@H](CCC(=O)O)C(=O)N1CCC[C@@H]1C(=O)N1CCC[C@H]1C(=O)N[C@@H](Cc1ccc(O)cc1)C(=O)N[C@@H](Cc1c[nH]cn1)C(=O)N[C@@H](C)C(=O)N2
On to B2, for which the “β-Arrestin IC50” value amounted to 0.132 µM.

B3: cyclo(-Tyr-His-Ala-Cys-Phe-Gly-^DPro-Trp-Thr-Ile-Cys-Tyr-Gln-Lys-^DPro-Pro-) (peptide)
peptide: cyclo(YHACFG[dP]WTICYQK[dP]P)
modifications: disulfide 4-11
SMILES: CC[C@H](C)[C@@H]1NC(=O)[C@H]([C@@H](C)O)NC(=O)[C@H](Cc2c[nH]c3ccccc23)NC(=O)[C@H]2CCCN2C(=O)CNC(=O)[C@H](Cc2ccccc2)NC(=O)[C@@H]2CSSC[C@H](NC1=O)C(=O)N[C@@H](Cc1ccc(O)cc1)C(=O)N[C@@H](CCC(N)=O)C(=O)N[C@@H](CCCCN)C(=O)N1CCC[C@@H]1C(=O)N1CCC[C@H]1C(=O)N[C@@H](Cc1ccc(O)cc1)C(=O)N[C@@H](Cc1c[nH]cn1)C(=O)N[C@@H](C)C(=O)N2
Take B3: the “β-Arrestin IC50” value is 0.166 µM.

B4: cyclo(-Tyr-His-Ala-Cys-Tyr-Gly-^DPro-Trp-Thr-Ile-Cys-Tyr-Gln-Lys-^DPro-Pro-) (peptide)
peptide: cyclo(YHACYG[dP]WTICYQK[dP]P)
modifications: disulfide 4-11
SMILES: CC[C@H](C)[C@@H]1NC(=O)[C@H]([C@@H](C)O)NC(=O)[C@H](Cc2c[nH]c3ccccc23)NC(=O)[C@H]2CCCN2C(=O)CNC(=O)[C@H](Cc2ccc(O)cc2)NC(=O)[C@@H]2CSSC[C@H](NC1=O)C(=O)N[C@@H](Cc1ccc(O)cc1)C(=O)N[C@@H](CCC(N)=O)C(=O)N[C@@H](CCCCN)C(=O)N1CCC[C@@H]1C(=O)N1CCC[C@H]1C(=O)N[C@@H](Cc1ccc(O)cc1)C(=O)N[C@@H](Cc1c[nH]cn1)C(=O)N[C@@H](C)C(=O)N2
With B4, the “β-Arrestin IC50” value was 0.184 µM.

B5: cyclo(-Glu-His-Ala-Cys-Trp-Gly-^DPro-Trp-Thr-Ile-Cys-Tyr-Gln-Lys-^DPro-Pro-) (peptide)
peptide: cyclo(EHACWG[dP]WTICYQK[dP]P)
modifications: disulfide 4-11
SMILES: CC[C@H](C)[C@@H]1NC(=O)[C@H]([C@@H](C)O)NC(=O)[C@H](Cc2c[nH]c3ccccc23)NC(=O)[C@H]2CCCN2C(=O)CNC(=O)[C@H](Cc2c[nH]c3ccccc23)NC(=O)[C@@H]2CSSC[C@H](NC1=O)C(=O)N[C@@H](Cc1ccc(O)cc1)C(=O)N[C@@H](CCC(N)=O)C(=O)N[C@@H](CCCCN)C(=O)N1CCC[C@@H]1C(=O)N1CCC[C@H]1C(=O)N[C@@H](CCC(=O)O)C(=O)N[C@@H](Cc1c[nH]cn1)C(=O)N[C@@H](C)C(=O)N2
Turning to B5, the “β-Arrestin IC50” value amounted to 0.131 µM.
